Results from PMC6522503.

How the values were obtained:
CDK4 = CDK4 (UniProt P11802); test: anti-HA co-IP, anti-FLAG blot; details: reference: wild type p21; sites T55
CDK2 = CDK2 (UniProt P24941); test: anti-HA co-IP, anti-FLAG blot; details: reference: wild type p21; sites T55

## p21 (from UniProt P38936) T55A p21
CDK4
  binding against the reference: weaker
CDK2
  binding against the reference: weaker
